According to publication PMC3832242:

Target: linked SSB dimer with the D. radiodurans linker (SSB-LD-Drl) (E. coli | D. radiodurans)
Assay: AUC

- stoichiometry N: 2
Substance: linked SSB dimer with the D. radiodurans linker (SSB-LD-Drl)
